Data reported in the Human Domainome abundance scans (Beltran et al. 2025).
± gives the uncertainty stated by the source.

B1: Zinc finger MYM-type protein 3, residues 589 to 668; numbered along this chain, Q14202 (parent)
chain: LSCHYCHSLFSGKPEVLDWQDQVFQFCCRDCCEDFKRLRGVVSQCEHCRQEKLLHEKLRFSGVEKSFCSEGCVLLYKQDF

Variants of: B1
Assay: abundance fitness (aPCA) (normalised: wild type 0, dead -1); higher = more abundant; growth selection in yeast, the domain comes from the species named
Settings: Homo sapiens

Abundance fitness, by site and new letter:
Y76: E -0.107 ± 0.11, W -0.542 ± 0.22, T -0.038 ± 0.22, M -0.524 ± 0.34, D -0.176 ± 0.17, K -0.048 ± 0.13, S -0.473 ± 0.16, H 0.329 ± 0.24, V -0.317 ± 0.14, Q -0.179 ± 0.15, L -0.663 ± 0.24, G -0.28 ± 0.098, N 0.757 ± 0.38
K77: T -0.108 ± 0.16, L -0.304 ± 0.18, E -0.406 ± 0.18, Q -0.149 ± 0.38, V -0.193 ± 0.14, P -0.71 ± 0.22, R -0.455 ± 0.14, S -0.495 ± 0.23, G -0.404 ± 0.12, A -0.78 ± 0.19, F -0.394 ± 0.39
F60: C -0.503 ± 0.29, P 0.113 ± 0.13, E 0.256 ± 0.1, Q -0.069 ± 0.13, V 0.204 ± 0.093, S 0.059 ± 0.12, M 0.079 ± 0.27, L 0.103 ± 0.11, R -0.327 ± 0.12, T -0.975 ± 0.46, D -0.529 ± 0.36, G -0.314 ± 0.097, A -0.034 ± 0.11
R59: G -0.261 ± 0.1, N 0.609 ± 0.27, W 0.336 ± 0.14, L 0.251 ± 0.099, A 0.22 ± 0.089, K 0.419 ± 0.13, T 0.631 ± 0.14, E 0.386 ± 0.075, S 0.541 ± 0.13, D 0.257 ± 0.11, V 0.306 ± 0.12, C 0.514 ± 0.18, Q 0.11 ± 0.29
L75: V -0.551 ± 0.15, T -0.078 ± 0.12, K 0.318 ± 0.23, S 0.258 ± 0.11, M 0.176 ± 0.41, N 0.227 ± 0.14, D 0.492 ± 0.17, W -0.561 ± 0.13, E 0.268 ± 0.11, A 0.615 ± 0.073, H -0.295 ± 0.3, P -0.268 ± 0.2, Q 0.573 ± 0.18, C 0.373 ± 0.21, G 0.276 ± 0.073
G62: M -0.3 ± 0.32, Q -0.865 ± 0.36, L -1.05 ± 0.27, A -0.722 ± 0.18, W -0.85 ± 0.22, R -0.788 ± 0.2, V -0.8 ± 0.33, P -1.01 ± 0.25, E 0.013 ± 0.19
K65: A -0.268 ± 0.16, P 0.325 ± 0.49, T -0.495 ± 0.28, E -1.07 ± 0.26, V -0.317 ± 0.19, Q -0.692 ± 0.27, R -0.115 ± 0.098, G -0.779 ± 0.16, L -0.441 ± 0.2, S -1.12 ± 0.48, M 0.26 ± 0.21, D -0.711 ± 0.25, Y -0.113 ± 0.25
C68: G -0.88 ± 0.15, S -0.619 ± 0.21, A -0.93 ± 0.23, R -0.892 ± 0.28, K -0.525 ± 0.24, W -1.18 ± 0.37, E -0.911 ± 0.26, Q -0.558 ± 0.19, M -0.505 ± 0.32
V73: W -0.167 ± 0.18, Q -0.309 ± 0.2, T -0.167 ± 0.19, L 0.268 ± 0.11, R 0.149 ± 0.082, D -0.521 ± 0.24, A 0.236 ± 0.086, E -0.027 ± 0.17, S 0.167 ± 0.093, G -0.188 ± 0.11
D79: G 0.187 ± 0.074, E 0.018 ± 0.15, L 0.034 ± 0.13, Q 0.475 ± 0.17, W -0.378 ± 0.19, A 0.089 ± 0.12, K 0.856 ± 0.22, P 0.119 ± 0.22, T -0.07 ± 0.14, S 0.241 ± 0.15, R 0.351 ± 0.11, V -0.531 ± 0.23
Q78: V -0.833 ± 0.16, D 0.567 ± 0.22, P -0.595 ± 0.21, H 0.565 ± 0.25, A 0.034 ± 0.11, E 0.018 ± 0.17, I -0.34 ± 0.42, C -0.892 ± 0.35, T -0.188 ± 0.17, G -0.292 ± 0.1, W -0.698 ± 0.21, L 0.466 ± 0.12, S 0.069 ± 0.15, M -0.372 ± 0.26, R 0.113 ± 0.076
F67: Q -0.338 ± 0.14, R -0.497 ± 0.12, C 0.283 ± 0.18, P -0.47 ± 0.19, M -0.567 ± 0.29, S -0.297 ± 0.18, H 0.092 ± 0.13, G 0.039 ± 0.12, T -0.614 ± 0.18, A -0.47 ± 0.18, N -0.231 ± 0.33, K -0.391 ± 0.16, E -0.626 ± 0.18, W -0.302 ± 0.32, L -0.852 ± 0.21
S66: K 0.067 ± 0.11, T -0.617 ± 0.28, R -0.059 ± 0.085, G -0.392 ± 0.12, V -0.235 ± 0.14, Q -0.618 ± 0.35, A -0.222 ± 0.15, M -0.002 ± 0.28, Y 0.382 ± 0.16, H 0.295 ± 0.38, E -0.473 ± 0.18, L 0.068 ± 0.12, P -0.834 ± 0.32
V63: T -0.271 ± 0.28, A -0.109 ± 0.13, Q -0.548 ± 0.36, S -0.255 ± 0.2, E 0.175 ± 0.11, K -0.13 ± 0.23
